The values that follow are results of earlier work, collected in article PMC9154193.

The target in series [1] is ULBP3 (Homo sapiens) (UniProt Q9BZM4).
Series [2] deals with Lck SH2 (Homo sapiens) (UniProt P06239).
For series [3], the target named is Grb2 SH3 (Homo sapiens) (UniProt P62993).
Sequence of UniProt P62993 (P62993 156-215): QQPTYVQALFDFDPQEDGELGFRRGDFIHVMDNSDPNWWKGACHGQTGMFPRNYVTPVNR

Sequence of UniProt Q9BZM4 (Q9BZM4 30-217): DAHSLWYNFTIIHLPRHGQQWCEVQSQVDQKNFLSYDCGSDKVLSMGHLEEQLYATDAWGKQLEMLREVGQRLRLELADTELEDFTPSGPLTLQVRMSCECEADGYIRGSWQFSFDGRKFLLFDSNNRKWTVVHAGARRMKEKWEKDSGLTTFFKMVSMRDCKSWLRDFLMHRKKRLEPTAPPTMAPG
Sequence of UniProt P06239 (P06239 124-227): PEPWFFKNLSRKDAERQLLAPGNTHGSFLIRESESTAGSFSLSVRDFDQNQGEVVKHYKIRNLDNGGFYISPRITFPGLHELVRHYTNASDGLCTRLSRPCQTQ

Regarding NKG2D (from UniProt P26718), the Kd – broadly, a measure of binding affinity in units of concentration – in series [1] was 4 µM.

Consider “Vav1 phospho-tyrosine region (from UniProt P15498)”, for which, in series [2], the Kd was 1390 nM.

On to Vav1 SH3 (from UniProt P15498), for which, in series [3], the Kd was 16.8 µM.
